Reference: IntAct's records for PubMed 28712572

Biological target: gbrap_human GABARAP (UniProt O95166)
Sequence (O95166 whole entry): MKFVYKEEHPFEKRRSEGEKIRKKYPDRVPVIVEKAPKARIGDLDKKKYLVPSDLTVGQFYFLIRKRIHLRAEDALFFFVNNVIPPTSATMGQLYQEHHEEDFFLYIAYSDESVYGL

| Substance | effect of a mutation on the interaction |
| --- | --- |
| Pericentriolar material 1 protein (Homo sapiens), Q15154 F1963H | disrupting interaction strength |
| Pericentriolar material 1 protein (Homo sapiens), Q15154 F1963I | disrupting interaction strength |
| Pericentriolar material 1 protein (Homo sapiens), Q15154 F1963K | disrupting interaction strength |
| Pericentriolar material 1 protein (Homo sapiens), Q15154 F1963L | disrupting interaction strength |
| Pericentriolar material 1 protein (Homo sapiens), Q15154 F1963M | disrupting interaction strength |
| Pericentriolar material 1 protein (Homo sapiens), Q15154 F1963N | disrupting interaction strength |
| Pericentriolar material 1 protein (Homo sapiens), Q15154 F1963P | disrupting interaction strength |
| Pericentriolar material 1 protein (Homo sapiens), Q15154 F1963Q | disrupting interaction strength |
| Pericentriolar material 1 protein (Homo sapiens), Q15154 F1963R | disrupting interaction strength |
| Pericentriolar material 1 protein (Homo sapiens), Q15154 F1963S | disrupting interaction strength |
| Pericentriolar material 1 protein (Homo sapiens), Q15154 F1963T | disrupting interaction strength |
| Pericentriolar material 1 protein (Homo sapiens), Q15154 F1963V | disrupting interaction strength |
| Pericentriolar material 1 protein (Homo sapiens), Q15154 F1963W | with no effect |
| Pericentriolar material 1 protein (Homo sapiens), Q15154 F1963Y | decreasing interaction strength |
| Pericentriolar material 1 protein (Homo sapiens), Q15154 G1952A | with no effect |
| Pericentriolar material 1 protein (Homo sapiens), Q15154 G1952C | with no effect |
| Pericentriolar material 1 protein (Homo sapiens), Q15154 G1952D | with no effect |
| Pericentriolar material 1 protein (Homo sapiens), Q15154 G1952E | with no effect |
| Pericentriolar material 1 protein (Homo sapiens), Q15154 G1952F | with no effect |
| Pericentriolar material 1 protein (Homo sapiens), Q15154 G1952H | with no effect |
| Pericentriolar material 1 protein (Homo sapiens), Q15154 G1952I | with no effect |
| Pericentriolar material 1 protein (Homo sapiens), Q15154 G1952K | with no effect |
| Pericentriolar material 1 protein (Homo sapiens), Q15154 G1952L | with no effect |

| Substance | effect of a mutation on the interaction |
| --- | --- |
| Pericentriolar material 1 protein (Homo sapiens), Q15154 G1952M | with no effect |
| Pericentriolar material 1 protein (Homo sapiens), Q15154 G1952N | with no effect |
| Pericentriolar material 1 protein (Homo sapiens), Q15154 G1952P | with no effect |
| Pericentriolar material 1 protein (Homo sapiens), Q15154 G1952Q | with no effect |
| Pericentriolar material 1 protein (Homo sapiens), Q15154 G1952R | with no effect |
| Pericentriolar material 1 protein (Homo sapiens), Q15154 G1952S | with no effect |
| Pericentriolar material 1 protein (Homo sapiens), Q15154 G1952T | with no effect |
| Pericentriolar material 1 protein (Homo sapiens), Q15154 G1952V | with no effect |
| Pericentriolar material 1 protein (Homo sapiens), Q15154 G1952W | with no effect |
| Pericentriolar material 1 protein (Homo sapiens), Q15154 G1952Y | with no effect |
| Pericentriolar material 1 protein (Homo sapiens), Q15154 I1954A | with no effect |
| Pericentriolar material 1 protein (Homo sapiens), Q15154 I1954C | with no effect |
| Pericentriolar material 1 protein (Homo sapiens), Q15154 I1954D | with no effect |
| Pericentriolar material 1 protein (Homo sapiens), Q15154 I1954E | with no effect |
| Pericentriolar material 1 protein (Homo sapiens), Q15154 I1954F | with no effect |
| Pericentriolar material 1 protein (Homo sapiens), Q15154 I1954G | with no effect |
| Pericentriolar material 1 protein (Homo sapiens), Q15154 I1954H | with no effect |
| Pericentriolar material 1 protein (Homo sapiens), Q15154 I1954K | with no effect |
| Pericentriolar material 1 protein (Homo sapiens), Q15154 I1954L | with no effect |
| Pericentriolar material 1 protein (Homo sapiens), Q15154 I1954M | with no effect |
| Pericentriolar material 1 protein (Homo sapiens), Q15154 I1954N | with no effect |
| Pericentriolar material 1 protein (Homo sapiens), Q15154 I1954P | with no effect |
| Pericentriolar material 1 protein (Homo sapiens), Q15154 I1954Q | with no effect |

| Substance | effect of a mutation on the interaction |
| --- | --- |
| Pericentriolar material 1 protein (Homo sapiens), Q15154 I1954R | with no effect |
| Pericentriolar material 1 protein (Homo sapiens), Q15154 I1954S | with no effect |
| Pericentriolar material 1 protein (Homo sapiens), Q15154 I1954T | with no effect |
| Pericentriolar material 1 protein (Homo sapiens), Q15154 I1954V | decreasing interaction strength |
| Pericentriolar material 1 protein (Homo sapiens), Q15154 I1954W | with no effect |
| Pericentriolar material 1 protein (Homo sapiens), Q15154 I1954Y | with no effect |
| Pericentriolar material 1 protein (Homo sapiens), Q15154 I1975A | with no effect |
| Pericentriolar material 1 protein (Homo sapiens), Q15154 I1975C | with no effect |
| Pericentriolar material 1 protein (Homo sapiens), Q15154 I1975D | with no effect |
| Pericentriolar material 1 protein (Homo sapiens), Q15154 I1975E | with no effect |
| Pericentriolar material 1 protein (Homo sapiens), Q15154 I1975F | with no effect |
| Pericentriolar material 1 protein (Homo sapiens), Q15154 I1975G | with no effect |
| Pericentriolar material 1 protein (Homo sapiens), Q15154 I1975H | with no effect |
| Pericentriolar material 1 protein (Homo sapiens), Q15154 I1975K | with no effect |
| Pericentriolar material 1 protein (Homo sapiens), Q15154 I1975L | with no effect |
| Pericentriolar material 1 protein (Homo sapiens), Q15154 I1975M | with no effect |
| Pericentriolar material 1 protein (Homo sapiens), Q15154 I1975N | with no effect |
| Pericentriolar material 1 protein (Homo sapiens), Q15154 I1975P | with no effect |
| Pericentriolar material 1 protein (Homo sapiens), Q15154 I1975Q | with no effect |
| Pericentriolar material 1 protein (Homo sapiens), Q15154 I1975R | with no effect |
| Pericentriolar material 1 protein (Homo sapiens), Q15154 I1975S | with no effect |
| Pericentriolar material 1 protein (Homo sapiens), Q15154 I1975T | with no effect |
| Pericentriolar material 1 protein (Homo sapiens), Q15154 I1975V | with no effect |
